Experimental data as given in patent US20190300590A1 (PROTAGONIST THERAPEUTICS, published 2019).
Blank lines part the entries; values can stand above or below the binder they belong to. Bridges are numbered along the chain shown (N, C = ends). Where no end group is shown, it is not given here. [ ]: non-standard residue; d: D form. AllylGly = C=CC[C@H](N)C(=O)O; Pen = CC(C)(S)[C@H](N)C(=O)O

Assays:
Rat IL-23R_huFC [1] = molecular target: Rat IL-23R_huFC (rat); assay: rat ELISA vs IL-23
IL23R_huFC [2] = molecular target: T1, IL23R_huFC (human, UniProt Q5VWK5 24-353); assay: human ELISA vs IL-23
T1 sequence (looked up): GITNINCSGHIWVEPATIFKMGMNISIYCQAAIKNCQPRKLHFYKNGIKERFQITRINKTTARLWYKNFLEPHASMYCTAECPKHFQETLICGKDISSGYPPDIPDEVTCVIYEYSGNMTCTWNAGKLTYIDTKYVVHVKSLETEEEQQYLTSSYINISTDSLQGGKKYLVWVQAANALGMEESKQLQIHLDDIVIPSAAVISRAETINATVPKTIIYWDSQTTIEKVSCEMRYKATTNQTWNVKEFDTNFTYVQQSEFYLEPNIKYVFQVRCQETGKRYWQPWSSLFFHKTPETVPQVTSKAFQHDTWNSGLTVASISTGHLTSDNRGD

IL23R_huFC [3] = molecular target: T1, IL23R_huFC; assay: human ELISA vs IL-23; remark: listed apart in the source
IL23R_huFC [4] = molecular target: T2, IL23R_huFC (human, UniProt Q5VWK5 24-353); assay: IL23-IL23R competitive ELISA
T2 sequence (looked up): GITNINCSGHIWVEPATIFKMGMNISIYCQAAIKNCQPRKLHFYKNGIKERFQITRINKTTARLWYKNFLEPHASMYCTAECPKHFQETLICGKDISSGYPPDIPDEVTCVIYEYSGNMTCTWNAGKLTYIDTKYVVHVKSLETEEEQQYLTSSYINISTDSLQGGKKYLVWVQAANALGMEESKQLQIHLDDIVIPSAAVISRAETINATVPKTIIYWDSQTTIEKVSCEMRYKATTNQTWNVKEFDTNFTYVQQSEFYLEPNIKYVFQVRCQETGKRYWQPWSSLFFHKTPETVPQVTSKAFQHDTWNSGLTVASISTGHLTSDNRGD

IL23R_huFC [5] = molecular target: T2, IL23R_huFC; assay: IL23-IL23R competitive ELISA, IC50 grade
Rat IL-23R_huFC [6] = molecular target: Rat IL-23R_huFC (rat); assay: rat ELISA vs IL-23; remark: listed apart in the source
IL23R_huFC [7] = molecular target: T1, IL23R_huFC; assay: human ELISA vs IL-23; remark: listed apart in the source
[8] = molecular target: IL-12Rb1_huFC/IL-23R_huFC (human, UniProt P42701 24-540; Q5VWK5 24-353); assay: SPR, mixed IL-12Rb1_huFC/IL-23R_huFC surface, IL-23 as analyte
[9] = molecular target: recombinant human IL-12Rβ1_huFC (RnD) (human, UniProt P42701 24-540); assay: SPR, IL-12Rb1_huFC captured on anti-human IgG, IL-23 as analyte
Rat IL-23R_huFC [10] = molecular target: Rat IL-23R_huFC (rat); assay: IL-23/IL-23R competitive binding ELISA, rat
Cyno IL-23R_huFC = molecular target: T3, Cyno IL-23R_huFC (cyno, UniProt G7NWY5 24-353); assay: IL-23/IL-23R competitive binding ELISA, cyno
T3 sequence: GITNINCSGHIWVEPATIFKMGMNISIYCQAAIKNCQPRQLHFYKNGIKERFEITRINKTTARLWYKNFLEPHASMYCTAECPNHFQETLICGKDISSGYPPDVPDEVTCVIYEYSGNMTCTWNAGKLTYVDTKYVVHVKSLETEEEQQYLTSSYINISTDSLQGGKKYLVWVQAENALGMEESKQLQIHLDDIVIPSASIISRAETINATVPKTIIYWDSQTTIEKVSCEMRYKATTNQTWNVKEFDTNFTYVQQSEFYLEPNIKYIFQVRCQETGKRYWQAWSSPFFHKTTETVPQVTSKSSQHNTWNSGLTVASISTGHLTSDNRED

[11] = molecular target: T4, Recombinant human IL-23R_huFC (RnD) (human, UniProt Q5VWK5 24-353); assay: IL-23/IL-23R competitive binding ELISA, human
T4 sequence (looked up): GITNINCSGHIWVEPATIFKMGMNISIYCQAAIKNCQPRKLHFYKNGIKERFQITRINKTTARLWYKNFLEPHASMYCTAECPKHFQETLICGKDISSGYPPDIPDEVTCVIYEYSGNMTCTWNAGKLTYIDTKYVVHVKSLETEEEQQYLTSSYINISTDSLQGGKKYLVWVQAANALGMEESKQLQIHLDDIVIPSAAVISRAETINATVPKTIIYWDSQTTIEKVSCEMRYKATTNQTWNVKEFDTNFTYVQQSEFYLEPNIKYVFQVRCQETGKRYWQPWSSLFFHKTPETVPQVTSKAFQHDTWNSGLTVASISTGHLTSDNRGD

IL-23R on DB cells = molecular target: T5, IL-23R on DB cells (human, UniProt Q5VWK5 24-629); assay: cell-based or functional assay
T5 sequence (looked up): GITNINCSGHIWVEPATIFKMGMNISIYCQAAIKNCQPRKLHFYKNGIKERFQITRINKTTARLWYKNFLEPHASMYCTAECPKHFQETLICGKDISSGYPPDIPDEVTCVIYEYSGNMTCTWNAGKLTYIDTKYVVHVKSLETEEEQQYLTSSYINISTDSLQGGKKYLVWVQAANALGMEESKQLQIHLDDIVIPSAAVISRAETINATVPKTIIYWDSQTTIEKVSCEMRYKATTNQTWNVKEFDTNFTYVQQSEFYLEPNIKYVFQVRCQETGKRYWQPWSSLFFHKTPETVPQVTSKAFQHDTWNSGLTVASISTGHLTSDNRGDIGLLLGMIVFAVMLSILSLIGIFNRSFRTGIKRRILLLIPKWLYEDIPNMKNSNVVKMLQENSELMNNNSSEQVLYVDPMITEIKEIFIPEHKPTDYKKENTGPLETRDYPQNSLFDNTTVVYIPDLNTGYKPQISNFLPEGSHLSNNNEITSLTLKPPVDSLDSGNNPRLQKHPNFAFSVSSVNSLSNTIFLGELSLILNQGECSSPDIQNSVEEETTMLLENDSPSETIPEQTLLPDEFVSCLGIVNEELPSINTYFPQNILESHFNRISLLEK

IL23R_huFC [12] = molecular target: T6, IL23R_huFC (human, UniProt Q5VWK5 24-353); assay: IL23-IL23R competitive binding ELISA
T6 sequence (looked up): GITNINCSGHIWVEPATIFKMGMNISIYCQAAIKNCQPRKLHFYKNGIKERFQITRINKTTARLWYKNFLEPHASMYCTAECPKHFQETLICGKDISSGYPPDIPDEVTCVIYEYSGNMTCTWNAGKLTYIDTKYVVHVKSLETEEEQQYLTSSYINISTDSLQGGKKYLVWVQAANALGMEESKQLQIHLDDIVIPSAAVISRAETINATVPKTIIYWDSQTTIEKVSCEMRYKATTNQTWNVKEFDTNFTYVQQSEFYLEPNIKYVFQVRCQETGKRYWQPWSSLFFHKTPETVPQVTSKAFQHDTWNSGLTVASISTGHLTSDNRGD

IL23R_huFC [13] = molecular target: T1, IL23R_huFC; assay: human ELISA vs IL-23; remark: listed apart in the source
[14] = molecular target: T7, IL-23R on human cells (IL-23R-expressing DB cells; human NK cells) (human, UniProt Q5VWK5 24-629); assay: cell-based or functional assay
T7 sequence (looked up): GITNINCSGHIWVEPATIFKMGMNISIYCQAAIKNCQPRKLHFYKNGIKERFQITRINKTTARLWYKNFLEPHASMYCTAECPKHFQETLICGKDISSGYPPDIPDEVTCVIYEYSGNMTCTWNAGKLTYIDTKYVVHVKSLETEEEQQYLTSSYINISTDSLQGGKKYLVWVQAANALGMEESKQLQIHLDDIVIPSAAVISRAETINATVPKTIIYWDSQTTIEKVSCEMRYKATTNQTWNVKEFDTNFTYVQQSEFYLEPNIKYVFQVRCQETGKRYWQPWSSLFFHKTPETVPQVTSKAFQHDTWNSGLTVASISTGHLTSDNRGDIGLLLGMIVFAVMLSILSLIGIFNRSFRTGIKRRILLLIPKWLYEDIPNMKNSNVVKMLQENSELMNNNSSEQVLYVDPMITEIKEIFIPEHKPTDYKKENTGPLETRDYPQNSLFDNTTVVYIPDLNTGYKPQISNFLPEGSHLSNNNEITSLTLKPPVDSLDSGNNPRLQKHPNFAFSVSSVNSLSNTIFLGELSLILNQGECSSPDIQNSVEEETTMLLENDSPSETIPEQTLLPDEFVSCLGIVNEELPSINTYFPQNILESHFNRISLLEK

Rat IL-23R_huFC [15] = molecular target: Rat IL-23R_huFC (rat); assay: rat ELISA vs IL-23; remark: listed apart in the source

Binder: CQTWQXYWLENG (as bracketed in name; cyclized via Cys and Pen) [Ac-CQTWQ-[Pen]-YW-[α-MeLeu]-ENG-NH2]
IC50 (Rat IL-23R_huFC [1]): 100 to 1000 nM
IC50 (IL23R_huFC [2]): 100 to 1000 nM

Binder: CADWVXYWHTFGXK (as bracketed in name; cyclized via Cys and Pen) [Ac-CADWV-[(D)Pen]-YWHTFG-[AEA]-[(D)-Lys]-NH2]
IC50 (Rat IL-23R_huFC [6]): 1000 to 10000 nM

B4: [Ac-[Pen]-QTWQ-[Pen]-[Phe[4-(2-aminoethoxy)]-[2-Nal]-[α-Me-Leu]-QNN-NH2]2DIG (peptide)
peptide: XQTWQXFXLQNN
modifications: Ac; Pen-Pen disulfide; Phe[4-(2-aminoethoxy)]; 2-Nal; α-Me-Leu; NH2; DIG linker joins the two subunits
pStat3 HTRF IC50 (IL-23R on DB cells): 10 to 25 nM
IC50 (IL23R_huFC [12]): 10 to 25 nM

B5: [Ac-[Pen]-QTWQ-[Pen]-[Phe[4-(2-aminoethoxy)]-[2-Nal]-[α-Me-Leu]-QNN-NH2]2PEG25 (peptide)
peptide: XQTWQXFXLQNN
modifications: Ac; Pen-Pen disulfide; Phe[4-(2-aminoethoxy)]; 2-Nal; α-Me-Leu; NH2; PEG25 linker joins the two subunits
pStat3 HTRF IC50 (IL-23R on DB cells): 10 to 25 nM
IC50 (IL23R_huFC [12]): < 10 nM

B6: [Ac-[(D)Lys]-Cyclo-[[Abu]-QTWQC]-[Phe(4-OMe)]-[2-Nal]-[α-MeLeu]-ENG-NH2]2 DIG (peptide)
peptide: KXQTWQCFXLENG
modifications: not fully specified; as bracketed in name; thioether cyclo; DIG linker through (D)Lys
IC50 (IL23R_huFC [13]): < 10 nM
pStat3 HTRF IC50 [14]: < 10 nM
IC50 (Rat IL-23R_huFC [15]): 25 to 100 nM

Next, values leading:

IC50 (IL23R_huFC [3]): 1000 to 10000 nM
B1: Ac-CQTWQ-[Pen]-YW-[(D)Asn]-ENG-NH2 (peptide)
peptide: Ac-CQTWQ[Pen]YW[dN]ENG-NH2
modifications: disulfide 1-6
SMILES: CC(=O)N[C@H]1CSSC(C)(C)[C@@H](C(=O)N[C@@H](Cc2ccc(O)cc2)C(=O)N[C@@H](Cc2c[nH]c3ccccc23)C(=O)N[C@H](CC(N)=O)C(=O)N[C@@H](CCC(=O)O)C(=O)N[C@@H](CC(N)=O)C(=O)NCC(N)=O)NC(=O)[C@H](CCC(N)=O)NC(=O)[C@H](Cc2c[nH]c3ccccc23)NC(=O)[C@H]([C@@H](C)O)NC(=O)[C@H](CCC(N)=O)NC1=O

IC50 (IL23R_huFC [4]): 500 to 1000 nM
IC50 (IL23R_huFC [5]): 100 to 1000 nM
Binder: H-CADWVCYWHTFG-NH2 (disulfide 1-6 (inferred)) [Hy-CADWVCYWHTFG-NH2]

IC50 (IL23R_huFC [7]): ~30000 nM
Binder: [AllylGly]ADWV[AllylGly]YWHTFG (staple 1-6 (inferred)) [SEQ ID NO. 1001 peptide (drawing CHEM-US-00115)]

Kd [8]: 0.18 nM
koff [8]: 0.000115 s⁻¹
kon [8]: 631000 M⁻¹ s⁻¹
Kd [9]: 0.87 nM
koff [9]: 0.000438 s⁻¹
kon [9]: 501000 M⁻¹ s⁻¹
B2: Recombinant human IL-23 (Humanzyme) (ligand)
chain 1: RAVPGGSSPAWTQCQQLSQKLCTLAWSAHPLVGHMDLREEGDEETTNDVPHIQCGDGCDPQGLRDNSQFCLQRIHQGLIFYEKLLGSDIFTGEPSLLPDSPVGQLHASLLGLSQLLQPEGHHWETQQIPSLSPSQPWQRLLLRFKILRSLQAFVAVAARVFAHGAATLSP
chain 2: IWELKKDVYVVELDWYPDAPGEMVVLTCDTPEEDGITWTLDQSSEVLGSGKTLTIQVKEFGDAGQYTCHKGGEVLSHSLLLLHKKEDGIWSTDILKDQKEPKNKTFLRCEAKNYSGRFTCWWLTTISTDLTFSVKSSRGSSDPQGVTCGAATLSAERVRGDNKEYEYSVECQEDSACPAAEESLPIEVMVDAVHKLKYENYTSSFFIRDIIKPDPPKNLQLKPLKNSRQVEVSWEYPDTWSTPHSYFSLTFCVQVQGKSKREKKDRVFTDKTSATVICRKNASISVRAQDRYYSSSWSEWASVPCS

IC50 (Rat IL-23R_huFC [10]): 2 nM
IC50 (Cyno IL-23R_huFC): 2 nM
IC50 [11]: 2 nM
B3: Peptide 993 (peptide)
peptide: RXQTWQCFXXENN
modifications: Ac-[(D)Arg]-Cyclo-[[Abu]-QTWQC]-[Phe[4-(2-aminoethoxy)]]-[2-Nal]-[4-amino-4-carboxy-tetrahydropyran]-ENN-NH2; cyclized by Abu-Cys thioether
